± gives the uncertainty stated by the source.

B1: Serine/threonine-protein kinase LATS1, residues 98 to 141; numbered along this chain, O95835 (parent)
chain: TSEVNPQMLQDLQAAGFDEDMVIQALQKTNNRSIEAAIEFISKM
B2: Apoptosis-associated speck-like protein containing a CARD, residues 114 to 194; numbered along this chain, Q9ULZ3 (parent)
chain: FIDQHRAALIARVTNVEWLLDALYGKVLTDEQYQAVRAEPTNPSKMRKLFSFTPAWNWTCKDLLLQALRESQSYLVEDLER

Variants of B1 are the subject of one data set. In words: abundance fitness (aPCA) (normalised: wild type 0, dead -1); higher = more abundant; growth selection in yeast, the domain comes from the species named. The following applies: Homo sapiens.
For T1Y, the abundance fitness was -0.26 ± 0.11.
Same read-out and setting: the figure for T1I is -0.079 ± 0.056; for T1M it is -0.11 ± 0.067; for T1G it is 0.023 ± 0.041.
Still for that read-out and setting: as for T1N, the figure is 0.316 ± 0.13.
For the variant T1W, the abundance fitness was -0.197 ± 0.054.
On to T1Q, for which the abundance fitness was -0.062 ± 0.1.
The same measure, in the same setting: as for T1C, the figure is -0.098 ± 0.046.
The same measure, in the same setting: as for T1R, the figure is -0.072 ± 0.052.
Still for that read-out and setting: the figure for T1S is 0.021 ± 0.04.
Turning to T1K, the abundance fitness is -0.012 ± 0.047.
The same measure, in the same setting: as for T1L, the figure is -0.303 ± 0.071; as for T1E, 0.019 ± 0.16; as for T1P, -0.213 ± 0.074.
Still for that read-out and setting: as for T1V, the figure is -0.148 ± 0.048; as for T1A, -0.062 ± 0.042; as for T1D, 0.018 ± 0.087.
T1F: the abundance fitness was -0.032 ± 0.23.
Consider S2C, for which the abundance fitness was -0.154 ± 0.093.
On the same count and under the same terms, the figure for S2E is -0.014 ± 0.06; for S2A it is -0.07 ± 0.04; for S2F it is -0.108 ± 0.085.
In the case of S2D, the abundance fitness is -0.082 ± 0.058.
On the same count and under the same terms, as for S2G, the figure is 0.029 ± 0.034.
Same read-out and setting: the figure for S2H is -0.168 ± 0.14.

Variants of B2 are the subject of the next data set. The data set is described as above. The conditions noted are these: Homo sapiens.
Turning to Q32L, the abundance fitness was -0.95 ± 0.13.
The same measure, in the same setting: as for A38S, the figure is -0.056 ± 0.051; as for A38H, -0.226 ± 0.14; as for A38F, -0.312 ± 0.11.
As to A38E, the abundance fitness is -0.15 ± 0.078.
The same measure, in the same setting: as for A38P, the figure is -0.935 ± 0.17; as for A38V, -0.419 ± 0.06.
On to V76P, for which the abundance fitness is -0.632 ± 0.1.
For the variant V76E, the abundance fitness was -0.838 ± 0.17.
On the same count and under the same terms, the figure for V76I is -0.056 ± 0.092; for V76W it is -0.611 ± 0.2.
In the case of V36I, the abundance fitness is -0.143 ± 0.13.
Take V36L: the abundance fitness is -0.846 ± 0.11.
Same read-out and setting: the figure for V36M is -0.837 ± 0.27; for V36C it is 0.04 ± 0.069; for E70N it is -0.322 ± 0.16.
The same measure, in the same setting: the figure for E70P is -0.542 ± 0.12.
On the same count and under the same terms, as for E70Y, the figure is -0.588 ± 0.23; as for E17C, -0.867 ± 0.21; as for E17D, 0.019 ± 0.1.
In the case of E17G, the abundance fitness is -0.357 ± 0.044.
On the same count and under the same terms, as for E17L, the figure is -0.859 ± 0.12; as for E17H, -0.695 ± 0.17; as for E17N, -0.286 ± 0.17.
Turning to E17Q, the abundance fitness is -0.083 ± 0.076.
V27H: the abundance fitness was -0.764 ± 0.26.
For the variant E80M, the abundance fitness was -0.325 ± 0.14.
Same read-out and setting: as for E80I, the figure is -0.24 ± 0.31.
On the same count and under the same terms, as for E80A, the figure is -0.283 ± 0.079; as for E80H, 0.018 ± 0.34.
Same read-out and setting: the figure for E80T is -0.172 ± 0.14.
In the case of K48S, the abundance fitness is -0.891 ± 0.12.
On the same count and under the same terms, the figure for K48G is -0.877 ± 0.096; for K48N it is -0.802 ± 0.22; for K48A it is -0.745 ± 0.081.
On the same count and under the same terms, as for K48T, the figure is -0.635 ± 0.12; as for K48L, -0.347 ± 0.063; as for K48D, -0.745 ± 0.26.
Still for that read-out and setting: as for W56M, the figure is -0.108 ± 0.099; as for W56Q, -0.598 ± 0.15; as for G25S, -0.701 ± 0.084.
Consider G25D, for which the abundance fitness is -0.255 ± 0.11.
Still for that read-out and setting: as for G25A, the figure is -0.43 ± 0.061.
Same read-out and setting: as for G25F, the figure is -0.931 ± 0.22; as for K26W, -0.481 ± 0.044.
Still for that read-out and setting: the figure for K26F is -0.47 ± 0.3.
Consider K26M, for which the abundance fitness is -0.563 ± 0.11.
K26R: the abundance fitness was -0.178 ± 0.038.
The same measure, in the same setting: as for K26S, the figure is -0.081 ± 0.051; as for L64E, -0.944 ± 0.16.
Still for that read-out and setting: the figure for L64S is -0.853 ± 0.1; for L64A it is -0.343 ± 0.065.
As to L64P, the abundance fitness is -1.02 ± 0.21.
Still for that read-out and setting: the figure for F1V is -0.908 ± 0.15; for F1S it is -0.385 ± 0.21; for F1D it is -0.685 ± 0.28.
Take N57T: the abundance fitness was -0.106 ± 0.067.
Same read-out and setting: as for N57S, the figure is 0.018 ± 0.052; as for N57E, -0.32 ± 0.079; as for N57L, -0.178 ± 0.056.
On the same count and under the same terms, the figure for N57V is -0.431 ± 0.053; for R12C it is -0.361 ± 0.15; for R12W it is -1.18 ± 0.29.
On the same count and under the same terms, as for R12A, the figure is -0.707 ± 0.092; as for T53L, 0.071 ± 0.056.
On to T53E, for which the abundance fitness is -0.126 ± 0.068.
As to T29I, the abundance fitness is -0.825 ± 0.28.
As to T41G, the abundance fitness is -0.484 ± 0.048.
Turning to T41Y, the abundance fitness is -0.519 ± 0.24.
Regarding T41K, the abundance fitness is -0.755 ± 0.18.
Same read-out and setting: the figure for T41Q is -0.517 ± 0.14; for T41R it is -0.907 ± 0.1; for T41L it is -0.834 ± 0.11.
Same read-out and setting: the figure for T41P is -0.845 ± 0.15; for M46P it is -0.542 ± 0.11.
M46D: the abundance fitness is -1.03 ± 0.32.
Still for that read-out and setting: as for M46Y, the figure is -0.707 ± 0.13.
On to L23K, for which the abundance fitness is -0.645 ± 0.15.
For the variant L23C, the abundance fitness is -0.444 ± 0.14.
On the same count and under the same terms, the figure for L23V is -0.611 ± 0.074; for L23G it is -0.911 ± 0.09; for L23E it is -0.719 ± 0.14.
The same measure, in the same setting: the figure for E39K is -0.549 ± 0.11; for E39H it is -0.79 ± 0.38.
Still for that read-out and setting: as for E39R, the figure is -0.692 ± 0.075.
Regarding E39W, the abundance fitness is -0.946 ± 0.19.
For the variant E39V, the abundance fitness is -0.815 ± 0.097.
On the same count and under the same terms, the figure for E39G is -0.669 ± 0.088; for E39L it is -0.303 ± 0.06; for L49H it is -0.664 ± 0.38.
On the same count and under the same terms, as for L49E, the figure is -0.979 ± 0.15.
The same measure, in the same setting: the figure for L49F is -0.811 ± 0.37; for L49S it is -0.798 ± 0.1.
Consider L49Y, for which the abundance fitness was -0.846 ± 0.22.
On the same count and under the same terms, the figure for L49N is -0.209 ± 0.14; for L49V it is -0.837 ± 0.089.
With L49I, the abundance fitness is -0.444 ± 0.17.
The same measure, in the same setting: as for F52Q, the figure is -0.427 ± 0.16; as for F52A, -0.732 ± 0.092.
Take F52S: the abundance fitness was -0.948 ± 0.12.
On the same count and under the same terms, as for F52V, the figure is -0.649 ± 0.056; as for L20E, -0.723 ± 0.13.
Same read-out and setting: as for L20M, the figure is -0.458 ± 0.093; as for Q72I, -0.977 ± 0.43; as for Q72M, -0.545 ± 0.12.
Same read-out and setting: the figure for Q72E is 0.116 ± 0.072.
For the variant Y74R, the abundance fitness is -0.031 ± 0.045.
On the same count and under the same terms, the figure for Y74A is 0.202 ± 0.057.
For the variant Y74L, the abundance fitness is 0.027 ± 0.043.
Regarding Y74E, the abundance fitness was found to be 0.249 ± 0.11.
The same measure, in the same setting: as for Y74D, the figure is 0.21 ± 0.09; as for L28Y, -0.783 ± 0.25; as for L28I, -0.119 ± 0.068.
On the same count and under the same terms, as for L28V, the figure is -0.734 ± 0.078; as for Y33I, -0.097 ± 0.14; as for Y33L, -0.204 ± 0.057.
Still for that read-out and setting: as for Y33A, the figure is -0.1 ± 0.06; as for Y33M, -0.189 ± 0.11.
Turning to S71A, the abundance fitness is -0.469 ± 0.11.
Consider S71V, for which the abundance fitness is -0.429 ± 0.068.
The same measure, in the same setting: as for S71R, the figure is -0.529 ± 0.058; as for S71D, -0.501 ± 0.15.
Still for that read-out and setting: the figure for S71G is -0.479 ± 0.063; for S71M it is -0.526 ± 0.12.
Still for that read-out and setting: the figure for S71T is -0.098 ± 0.08; for Q4T it is 0.117 ± 0.07.
Consider Q4D, for which the abundance fitness is -0.432 ± 0.24.
As to Q4G, the abundance fitness was -0.685 ± 0.081.
On the same count and under the same terms, as for K45P, the figure is -0.803 ± 0.15; as for K45C, -0.887 ± 0.16.
Turning to K45Q, the abundance fitness was -0.695 ± 0.19.
Same read-out and setting: the figure for W58C is 0.047 ± 0.082; for W58I it is -0.217 ± 0.24; for R69K it is 0.031 ± 0.088.
Still for that read-out and setting: the figure for R69T is -0.538 ± 0.12; for R69W it is -0.679 ± 0.12; for N42P it is -0.306 ± 0.077.
On the same count and under the same terms, as for N42T, the figure is -0.336 ± 0.11; as for N42A, -0.188 ± 0.076.
N42R: the abundance fitness is -0.562 ± 0.057.
Take N42W: the abundance fitness is -0.582 ± 0.076.
On the same count and under the same terms, the figure for L19S is -0.853 ± 0.11.

(Values after the Human Domainome abundance scans (Beltran et al. 2025).)
